# Experimental data from article PMC2810336, “Mutational Analysis of Highly Conserved Residues in the Phage PhiC31 Integrase Reveals Key Amino Acids Necessary for the DNA Recombination”.
# T1: phiC31 integrase G182A/F183A (Streptomyces phage phiC31, UniProt Q38194 1-613, G182A;F183A)
# T1 sequence: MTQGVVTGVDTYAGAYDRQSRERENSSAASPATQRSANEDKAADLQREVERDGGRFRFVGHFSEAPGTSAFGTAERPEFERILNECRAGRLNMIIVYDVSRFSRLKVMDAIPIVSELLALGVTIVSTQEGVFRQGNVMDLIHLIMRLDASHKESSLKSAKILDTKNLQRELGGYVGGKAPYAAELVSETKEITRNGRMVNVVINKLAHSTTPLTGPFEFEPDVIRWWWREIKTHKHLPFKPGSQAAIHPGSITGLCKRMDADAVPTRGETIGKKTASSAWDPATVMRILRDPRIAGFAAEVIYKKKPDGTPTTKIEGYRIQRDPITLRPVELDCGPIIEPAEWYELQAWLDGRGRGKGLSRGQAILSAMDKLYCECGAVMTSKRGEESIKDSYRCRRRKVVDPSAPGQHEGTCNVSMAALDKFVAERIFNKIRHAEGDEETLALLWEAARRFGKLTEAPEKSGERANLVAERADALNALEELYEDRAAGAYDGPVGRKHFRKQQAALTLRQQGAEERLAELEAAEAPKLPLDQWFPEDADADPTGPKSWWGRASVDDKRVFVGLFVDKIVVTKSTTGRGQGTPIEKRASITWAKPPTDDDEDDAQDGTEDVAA
# T2: phiC31 integrase C374A (Streptomyces phage phiC31, UniProt Q38194 1-613, C374A)
# T2 sequence: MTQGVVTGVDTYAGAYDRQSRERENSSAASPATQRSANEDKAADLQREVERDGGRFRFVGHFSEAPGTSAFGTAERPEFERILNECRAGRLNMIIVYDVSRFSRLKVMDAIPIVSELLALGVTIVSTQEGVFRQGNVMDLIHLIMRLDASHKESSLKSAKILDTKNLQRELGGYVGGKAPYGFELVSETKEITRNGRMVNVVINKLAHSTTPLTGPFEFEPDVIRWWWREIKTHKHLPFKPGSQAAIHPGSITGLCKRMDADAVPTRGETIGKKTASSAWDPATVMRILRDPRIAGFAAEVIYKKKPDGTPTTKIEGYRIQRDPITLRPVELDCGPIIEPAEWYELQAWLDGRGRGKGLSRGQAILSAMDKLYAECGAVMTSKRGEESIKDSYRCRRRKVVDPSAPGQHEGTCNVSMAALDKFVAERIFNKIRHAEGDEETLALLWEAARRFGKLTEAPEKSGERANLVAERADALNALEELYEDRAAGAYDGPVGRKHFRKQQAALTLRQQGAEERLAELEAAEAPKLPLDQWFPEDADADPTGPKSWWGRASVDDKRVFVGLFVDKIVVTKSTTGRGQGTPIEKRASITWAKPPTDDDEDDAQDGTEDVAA
# T3: phiC31 integrase WT (Streptomyces phage phiC31, UniProt Q38194 1-613)
# T3 sequence: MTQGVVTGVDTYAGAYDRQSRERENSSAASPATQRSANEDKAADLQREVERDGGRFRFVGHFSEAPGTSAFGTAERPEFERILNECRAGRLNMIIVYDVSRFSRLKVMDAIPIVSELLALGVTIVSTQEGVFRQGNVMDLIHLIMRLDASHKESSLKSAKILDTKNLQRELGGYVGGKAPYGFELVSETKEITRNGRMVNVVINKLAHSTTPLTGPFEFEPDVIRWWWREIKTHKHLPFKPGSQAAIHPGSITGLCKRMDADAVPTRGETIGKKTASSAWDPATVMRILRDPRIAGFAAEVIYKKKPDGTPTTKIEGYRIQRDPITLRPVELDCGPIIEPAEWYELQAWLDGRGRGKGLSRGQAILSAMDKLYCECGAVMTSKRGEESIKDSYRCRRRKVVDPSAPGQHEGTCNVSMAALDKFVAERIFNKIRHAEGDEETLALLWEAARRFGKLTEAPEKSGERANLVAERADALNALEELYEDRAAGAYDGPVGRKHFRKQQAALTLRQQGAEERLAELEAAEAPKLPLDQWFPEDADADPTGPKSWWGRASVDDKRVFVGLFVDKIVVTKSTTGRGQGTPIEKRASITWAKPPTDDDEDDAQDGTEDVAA
# How the values were obtained:
# [1] = molecular target: T1, phiC31 integrase G182A/F183A; test: EMSA; 50 ng/ul Poly (competitor (so in the source)), 0.05% NP-40, 50 mM KCl, 5 mM MgCl2, 10 mM EDTA, 20 ul, 0.4 ng (16 fmol) probe; 30 min at room temperature (Methods) or 30 C; pH not stated; synapsis 2 h at 30 C; conditions: protein: recombinant; tags: C-terminal His; chain copies: 2; label: biotin, double-strand end-labeled; blunt
# phiC31 integrase C374A = molecular target: T2, phiC31 integrase C374A; test: as above; conditions: protein: recombinant; tags: C-terminal His; chain copies: 2; label: biotin, double-strand end-labeled; blunt
# phiC31 integrase WT = molecular target: T3, phiC31 integrase WT; test: EMSA; complexes I, II, III; 50 ng/ul Poly (competitor (so in the source)), 0.05% NP-40, 50 mM KCl, 5 mM MgCl2, 10 mM EDTA, 20 ul, 0.4 ng (16 fmol) probe; 30 min at room temperature (Methods) or 30 C; pH not stated; synapsis 2 h at 30 C; conditions: protein: recombinant; tags: C-terminal His (pET22b); chain copies: 2; label: biotin, double-strand end-labeled; blunt
binder,measurement,setting,value
attP 50 bp (dsDNA) DNA 1: GTAGTGCCCCAACTGGGGTAACCTTTGAGTTCTCTCAGTTGGGGGCGTAG DNA 2: CTACGCCCCCAACTGAGAGAACTCAAAGGTTACCCCAGTTGGGGCACTAC,binding result,[1],no binding
same,binding result,phiC31 integrase C374A,no binding
same,binding result,phiC31 integrase WT,binds
